Assay results as given in article PMC12737490, “Beta Toxins Isolated from the Scorpion Centruroides hirsutipalpus (Scorpiones; Buthidae) Affect the Function of Sodium Channels of Mammals” (Toxins, 2025).

Key:
hNav 1.6 = assay: Patch-clamp macroscopic sodium currents, hNav1.6 in HEK cells; assay type: cell-based, human; settings: 200 nM toxin; for A: fraction of channels bound to the toxin: activation; for A: fraction of channels bound to the toxin / slope of activation after toxin / V0.5 of activation after toxin: sum of two Boltzmann fit; for A: fraction of channels bound to the toxin / I/Imax (residual peak current) / slope of inactivation after toxin / V0.5 of inactivation after toxin / slope of activation after toxin / V0.5 of activation after toxin: mean ± SE of 5 cells (3–5 cells); for I/Imax (residual peak current): both values marked * (p<0.05 paired t-test); for slope of inactivation after toxin / V0.5 of inactivation after toxin: steady-state inactivation; for slope of inactivation after toxin: control 6.6 ± 0.3 (Chirp7 cells), 6.3 ± 0.1 (Chirp9 cells); for V0.5 of inactivation after toxin: control -55.8 ± 0.3 (Chirp7 cells), -65.0 ± 0.1 (Chirp9 cells); for slope of activation after toxin: control 5.6 ± 0.22 (Chirp7 cells), 7.0 ± 0.4 (Chirp9 cells); for slope of activation after toxin / V0.5 of activation after toxin: both toxin values marked * (p<0.05); for V0.5 of activation after toxin: toxin-bound component, control -22.8 ± 0.3 (Chirp7 cells), -22.5 ± 0.3 (Chirp9 cells)
Description: Recordings of macroscopic currents from sodium channels. Human voltage-gated sodium channels (hNav 1.1, hNav 1.2 and hNa 1.6) were stably expressed in HEK cells. Cells were maintained at 37 ◦C with 5% CO2 in a humidified atmosphere. The growth medium consisted of high-glucose Dulbecco’s Modified Eagle Medium (DMEM, Sigma Aldrich, Naucalpan de Juarez, Estado de Mexico, Mexico), supplemented with 10% Fetal Bovine Serum (ByProductos, Guadalajara, Jalisco, Mexico) and 500 μg/mL of the antibiotic G418 (Sigma Aldrich, Naucalpan de Juarez, Estado de Mexico, Mexico). The extracellular solution was composed of (in mM): 130 NaCl, 5 KCl, 2 CaCl2, 2 MgCl2, 10 HEPES, and 5 glucose, with the pH adjusted to 7.3 using NaOH. The intracellular solution contained (in mM): 105 CsF, 27 CsCl, 5 NaCl, 2 MgCl2, 10 EGTA, and 10 HEPES, with the pH also adjusted to 7.3 with CsOH. Solutions were delivered to the patched cell via an active perfusion system connected to a variable-speed syringe pump (Model A-99, Razel Scientific Instruments, Fairfax, VT, USA), with a perfusion rate of approximately 1 μL/s. Patch pipettes were made from borosilicate glass capillaries (Warner Instruments, Hamden, CT, USA) using a vertical puller (Model P-30, Sutter Instrument, Novato, CA, USA). The pipettes were filled with the internal solution and had resistance ranging from 1.5 and 3 MΩ. Sodium currents were elicited by 100 ms depolarization ranging from −110 to 30 mV in 10 mV steps, followed by a fully activating step at −10 mV for 50 ms. To better appreciate the effects of scorpion β-sodium toxins, channels were primed by means of a 5 ms depolarization at 50 mV, applied 50 ms before the depolarization steps, as previously described in Cestele et al. 1998 [17]. To ensure complete recovery from inactivation, cells were maintained at −120 mV for 280 ms before each step, while holding potential was set at −100 mV. Currents were acquired using a MultiClamp 700A amplifier and a DigiData 1440A digitizer (Molecular Devices, CA, USA).
For the activation curve, conductance (G) was calculated from current (I) elicited during depolarization steps by means of the equation G = I/(Vm − ENa), where I is the current elicited at membrane potential Vm, and ENa is the reversal potential of Na^+ ions, calculated experimentally for each cell. Conductance was normalized to its maximal level and plotted against the corresponding membrane potential. For the steady-state inactivation curve, currents elicited at −10 mV (after preconditioning depolarization from −110 to 30 mV) were plotted against the preconditioning potentials. Data from activation and from steady-state inactivation were fitted using a Boltzmann equation: y = A2 + (A1 − A2)/(1 + exp((x − x0)/dx)) where A1 is the initial value, A2 is the final value, x0 is the potential of half-activation (or half-inactivation) and dx is the slope.
For hNav 1.6 currents, activation data after toxin exposure were fitted using the sum of two Boltzmann equations: y = y0 + A (frac/(1 + exp((x − x01)/k1)) + (1 − frac)/(1 + exp((x − x02)/k2))) where the sum is 1, x01 and dx1 are the same as under control conditions, and “frac” represents the fraction of channels bound to the toxin. Data are presented as means ± standard error (SE). The paired sample t-test (also known as the dependent samples t-test) was applied by comparing, for each individual cell recorded, the electrophysiological parameter of interest (e.g., peak current, V½ of activation or inactivation) before toxin application and after toxin application. Significant difference was accepted with a confidence level “p” set at 0.05. […]
Figure S1. Recordings of macroscopic currents from sodium channels. Sodium currents in B) were
elicited by the stimulation protocol depicted in A): currents were elicited by 100 ms depolarization
ranging from -110 to 30 mV in 10 mV steps, followed by a fully activating step at -10 mV for 50 ms. […]

antibody = assay: Antibody recognition of Chirp9 compared with Cl13; assay type: binding; settings: effect of the two amino acid differences between Chirp9 and Cl13
Text: Evaluation of the recognition capability of scFvs for the toxins of C. hirsutipalpus. Surface plasmon resonance (SPR) evaluations of the recognition capability of scFvs for the toxins of C. hirsutipalpus. The toxins from C. hirsutipalpus were used to evaluate the recognition capacity of antibody fragments previously generated against Mexican scorpion toxins in a biosensor that detects molecular interactions in real time (Biacore X100, Uppsala, Sweden). The toxins Chirp7 and Chirp9 were covalently immobilized onto the surface of CM5 Chips using the amino coupling kit, achieving binding levels of 200 RUs (1 RU corresponds to a change in surface concentration of approximately one pg of bound mass per mm^2). Each pure toxin was solubilized in 10 mM 2-(N-morpholino) ethanesulfonic acid (pH 6) and bound to cell 2. Cell 1 in the sensor (without bound toxin) was used as a control. The scFvs LR, 10FG2, 11F, HV, and RAS 27 [21] were evaluated for their ability to recognize each toxin.

Molecule	effect on activation curve (hNav 1.6)	effect on peak current (hNav 1.6)	A: fraction of channels bound to the toxin (hNav 1.6)	I/Imax (residual peak current) (hNav 1.6)	slope of inactivation after toxin (hNav 1.6)	V0.5 of inactivation after toxin (hNav 1.6)	slope of activation after toxin (hNav 1.6)	V0.5 of activation after toxin (hNav 1.6)	effect on inactivation kinetic (hNav 1.6; residual current at potentials greater than −30 mV)	antibody recognition of Chirp9 versus Cl13 (antibody)
Chirp7 (disulfide (positions not given here); also: four disulfide bridges, pairing not given here) KEGYLVNHSTGCKYECFKLGDNDYCLRECRQQYGKGAGGYCYAFGCWCTHLYEQAVVWPLPKKTCN-NH2	leftward shift in the activation curves	reduced the peak current	0.34 ± 0.04	0.88 ± 0.03	7.2 ± 0.4	-58 ± 0.4 mV	9.4 ± 1.9	-52.5 ± 3.4 mV		
Chirp9 (disulfide (positions not given here); also: four disulfide bridges, pairing not given here) KEGYIVDYHTGCKYTCAKLGDNDYCVRECRLRYYQSAHGYCYAFACWCTHLYEAAVVWPLPNKRCK-NH2	leftward shift in the activation curves	reduced the peak current	1 ± 0.1	0.29 ± 0.03	6.9 ± 0.4	-67.1 ± 0.5 mV	15.5 ± 0.9	-40.9 ± 0.2 mV	slows down the inactivation kinetic by promoting a residual current	significantly reduce antibody recognition
